This is an account of results in US20190060430A1 (published 2019).

Holding throughout (experiment): cytokine release
Assay [1] addresses NY-ESO-1 peptide on HLA-DRB1*11:01 (human).
Assay [2] has as its target T1, TPTE peptide on HLA-DRB1*15:01 (human).
T1 peptide: DVVYIFFDIKLLRNI

The target in assay [3] is T2, NY-ESO-1 peptide on HLA-B*35:08 (human).
T2 peptide: LAMPFATPM

Assay [4] deals with T3, PLAC1 peptide on HLA-A*02:01 (human).
T3 peptide: SIDWFMVTV

Assay [5] deals with T4, PLAC1 peptide on HLA-A*02:01 (human).
T4 peptide: VLCSIDWFM

Assay [6] has as its target T5, PLAC1 peptide on HLA-A*02:01 (human).
T5 peptide: CSIDWFMVTVHP

B1: TCRCD4-NY#11 (TCR, V domains shown)
Valpha: AQSVSQHNHHVILSEAASLELGCNYSYGGTVNLFWYVQYPGQHLQLLLKYFSGDPLVKGIKGFEAEFIKSKFSFNLRKPSVQWSDTAEYFCAVNRRTGNQGGKLIFGQGTELSVKP
Vbeta: EAGVAQSPRYKIIEKRQSVAFWCNPISGHATLYWYQQILGQGPKLLIQFQNNGVVDDSQLPKDRFSAERLKGVDSTLKIQPAKLEDSAVYLCASSLGPYIDGAGCTFGSGTRLTVV
For the molecule B1, the binding result in assay [1] is on record as “recognises”.

B2: TCRCD4-TPT#67 (TCR, V domains shown)
Valpha: QKEVEQDPGPLSVPEGAIVSLNCTYSNSAFQYFMWYRQYSRKGPELLMYTYSSGNKEDGRFTAQVDKSSKYISLFIRDSQPSDSATYLCALYTGGFKTIFGAGTRLFVKA
Vbeta: KAGVTQTPRYLIKTRGQQVTLSCSPISGHRSVSWYQQTPGQGLQFLFEYFSETQRNKGNFPGRFSGRQFSNSRSEMNVSTLELGDSALYLCASSFMGTEQYFGPGTRLTVT
For B2, the binding result in assay [2] was “recognises”.

B3: TCRCD8-NY#6 (TCR, V domains shown)
Valpha: SQQGEEDPQALSIQEGENATMNCSYKTSINNLQWYRQNSGRGLVHLILIRSNEREKHSGRLRVTLDTSKKSSSLLITASRAADTASYFCATDEYGNKLVFGAGTILRVKS
Vbeta: DAGVIQSPRHEVTEMGQEVTLRCKPISGHNSLFWYRQTMMRGLELLIYFNNNVPIDDSGMPEDRFSAKMPNASFSTLKIQPSEPRDSAVYFCASSYPGFNEQFFGPGTRLTVL
With B3, the binding result in assay [3] is given as “recognises”.

B4: TCRCD8-NY#15 (TCR, V domains shown)
Valpha: QKEVEQNSGPLSVPEGAIASLNCTYSDRGSQSFFWYRQYSGKSPELIMSIYSNGDKEDGRFTAQLNKASQYVSLLIRDSQPSDSATYLCAVPYYWSSGGSNYKLTFGKGTLLTVNP
Vbeta: DTEVTQTPKHLVMGMTNKKSLKCEQHMGHRAMYWYKQKAKKPPELMFVYSYEKLSINESVPSRFSPECPNSSLLNLHLHALQPEDSALYLCASSQSGLEETQYFGPGTRLLVL
For the molecule B4, the binding result in assay [3] was “recognises”.

B5: TCRCD4-NY#5 (TCR, V domains shown)
Valpha: AQSVTQLGSHVSVSEGALVLLRCNYSSSVPPYLFWYVQYPNQGLQLLLKYTTGATLVKGINGFEAEFKKSETSFHLTKPSAHMSDAAEYFCAVSRANFGNEKLTFGTGTRLTIIP
Vbeta: DTEVTQTPKHLVMGMTNKKSLKCEQHMGHRAMYWYKQKAKKPPELMFVYSYEKLSINESVPSRFSPECPNSSLLNLHLHALQPEDSALYLCASSQDPRGGPQHFGDGTRLSIL
B5: the binding result in assay [1] is reported as “recognises”.

B6: TCRCD4-TPT#48/2 (TCR, V domains shown)
Valpha: AQSVTQPDIHITVSEGASLELRCNYSYGATPYLFWYVQSPGQGLQLLLKYFSGDTLVQGIKGFEAEFKRSQSSFNLRKPSVHWSDAAEYFCAVGAYDMRFGAGTRLTVKP
Vbeta: DVKVTQSSRYLVKRTGEKVFLECVQDMDHENMFWYRQDPGLGLRLIYFSYDVKMKEKGDIPEGYSVSREKKERFSLILESASTNQTSMYLCASNRLNTEAFFGQGTRLTVV
On to B6, for which, in assay [2], the binding result is listed as “recognises”.

B7: TCRCD8-mPL#17 (TCR, V domains shown)
Valpha: QQQVRQSPQSLTVWEGETAILNCSYEDSTFNYFPWYQQFPGEGPALLISIRSVSDKKEDGRFTIFFNKREKKLSLHITDSQPGDSATYFCAPNNRIFFGDGTQLVVKP
Vbeta: EAAVTQSPRNKVAVTGGKVTLSCNQTNNHNNMYWYRQDTGHGLRLIHYSYGAGSTEKGDIPDGYKASRPSQENFSLILELATPSQTSVYFCASLGYNYAEQFFGPGTRLTVL
Regarding B7, the binding result in assay [4], in assay [5] and in assay [6] was “recognises” in each case.

B8: TCRCD8-mPL#19 (TCR, V domains shown)
Valpha: GDSVIQMQGQVTLSENDFLFINCTYSTTGYPTLFWYVQYSGEGPQLLLQVTTANNKGSSRGFEATYDKGTTSFHLQKTSVQEIDSAVYYCAMSDASGSWQLIFGSGTQLTVMP
Vbeta: EAAVTQSPRSKVAVTGGKVTLSCHQTNNHDYMYWYRQDTGHGLRLIHYSYVADSTEKGDIPDGYKASRPSQENFSLILELASLSQTAVYFCASSPDRPSYNSPLYFAAGTRLTVT
In the case of B8, the binding result in assay [4], in assay [5] and in assay [6] was “recognises” in each case.

B9: TCRCD8-mPL#20 (TCR, V domains shown)
Valpha: GDSVTQKEGLVTLTEGLPVMLNCTYQTIYSNAFLFWYVHYLNESPRLLLKSSTDNKRTEHQGFHATLHKSSSSFHLQKSSAQLSDSALYYCALNNVGDNSKLIWGLGTSLVVNP
Vbeta: NTKITQSPRYLILGRANKSLECEQHLGHNAMYWYKQSAEKPPELMFLYNLKQLIRNETVPSRFIPECPDSSKLLLHISAVDPEDSAVYFCASSQYGGANTEVFFGKGTRLTVV
For B9, the binding result in assay [4], in assay [5] and in assay [6] was “recognises” throughout.

B10: TCRCD8-NY#5 (TCR, V domains shown)
Valpha: ILNVEQSPQSLHVQEGDSTNFTCSFPSSNFYALHWYRWETAKSPEALFVMTLNGDEKKKGRISATLNTKEGYSYLYIKGSQPEDSATYLCASTSYSSASKIIFGSGTRLSIRP
Vbeta: GAGVSQSPRYKVTKRGQDVALRCDPISGHVSLYWYRQALGQGPEFLTYFNYEAQQDKSGLPNDRFSAERPEGSISTLTIQRTEQRDSAMYRCASSHSSGGAGELFFGEGSRLTVL
Turning to B10, in assay [3], the binding result is “recognises”.

B11: TCRCD8-mPL#12 (TCR, V domains shown)
Valpha: GDQVEQSPSALSLHEGTGSALRCNFTTTMRAVQWFQQNSRGSLINLFYLASGTKENGRLKSTFNSKESYSTLHIRDAQLEDSGTYFCAAVNTNTGKLTFGDGTVLTVKP
Vbeta: SVLLYQKPNRDICQSGTSLKIQCVADSQVVSMFWYQQFQEQSLMLMATANEGSEATYESGFTKDKFPISRPNLTFSTLTVNNARPGDSSIYFCSSRTPNTGQLYFGEGSKLTVL
Take B11: the binding result in assay [4], in assay [5] and in assay [6] was “recognises” throughout.

B12: TCRCD8-mPL#8 (TCR, V domains shown)
Valpha: TQTVSQSDAHVTVFEGDSVELRCNYSYGGSIYLSWYIQHHGRGLQFLLKYYSGNPVVQGVNGFKAEFSKSDSSFHLRKASVHWSDSAVYFCAVSAGGYKVVFGSGTRLLVSP
Vbeta: NTKITQSPRYLILGRANKSLECEQHLGHNAMYWYKQSAEKPPELMFLYNLKQLIRNETVPSRFIPECPDSSKLLLHISAVDPEDSAVYFCASSPGGAEQFFGPGTRLTVL
For B12, the binding result in assay [4], in assay [5] and in assay [6] was “recognises” in each case.

B13: TCRCD8-mPL#14 (TCR, V domains shown)
Valpha: TQTVSQSDAHVTVFEGDSVELRCNYSYGGSIYLSWYIQHHGHGLQFLLKYYSGNPVVQGVNGFEAEFSKSDSSFHLRKASVHWSDSAVYFCAVSSGGYKVVFGSGTRLLVSP
Vbeta: NTKITQSPRYLILGRANKSLECEQHLGHNAMYWYKQSAEKPPELMFLYNLKQLIRNETVPSRFIPECPDSSKLLLHISAVDPEDSAVYFCASSQGGTEVFFGKGTRLTVV
For B13, the binding result in assay [4], in assay [5] and in assay [6] was “recognises” throughout.

B14: TCRCD8-mPL#2 (TCR, V domains shown)
Valpha: GDSVTQTEGQVTVSESKSLIINCTYSATSIGYPNLFWYVRYPGEGLQLLLKVITAGQKGSSRGFEATYNKEATSFHLQKASVQESDSAVYYCALSDSNYQLIWGSGTKLIIKP
Vbeta: DPKIIQKPKYLVAVTGSEKILICEQYLGHNAMYWYRQSAKKPLEFMFSYSYQKLMDNQTASSRFQPQSSKKNHLDLQITALKPDDSATYFCASSPDNSGNTLYFGEGSRLIVV
For B14, the binding result in assay [4], in assay [5] and in assay [6] was “recognises” throughout.

B15: TCRCD8-mPL#11 (TCR, V domains shown)
Valpha: GDSVTQTEGPVTVSESESLIINCTYSATSIAYPNLFWYVRYPGEGLQLLLKVITAGQKGSSRGFEATYNKETTSFHLQKASVQESDSAVYYCALGLGYKLTFGTGTSLLVDP
Vbeta: DPKIIQKPKYLVAVTGSEKILICEQYLGHNAMYWYRQSAKKPLEFMFSYSYQKLMDNQTASSRFQPQSSKKNHLDLQITALKPDDSATYFCASSGDNSGNTLYFGEGSRLIVV
As for B15, the binding result in assay [4], in assay [5] and in assay [6] was “recognises” in each case.

B16: TCRCD8-NY#8 (TCR, V domains shown)
Valpha: AQSVTQLDSQVPVFEEAPVELRCNYSSSVSVYLFWYVQYPNQGLQLLLKYLSGSTLVKGINGFEAEFNKSQTSFHLRKPSVHISDTAEYFCAVSDQGTGGFKTIFGAGTRLFVKA
Vbeta: DVKVTQSSRYLVKRTGEKVFLECVQDMDHENMFWYRQDPGLGLRLIYFSYDVKMKEKGDIPEGYSVSREKKERFSLILESASTNQTSMYLCASRGTVTSSLMNTEAFFGQGTRLTVV
B16: the binding result in assay [3] was “recognises”.

B17: TCRCD8-mPL#22 (TCR, V domains shown)
Valpha: GQQVQQSPASLVLQEGENAELQCNFSSTATRLQWFYQHPGGRLVSLFYNPSGTKHTGRLTSTTVTNERRSSLHISSSQTTDSGTYFCAAASNTNKVVFGTGTRLQVLP
Vbeta: GALVYQYPRRTICKSGTSMRMECQAVGFQATSVAWYRQSPQKTFELIALSTVNSAIKYEQNFTQEKFPISHPNLSFSSMTVLNAYLEDRGLYLCGVDRANYAEQFFGPGTRLTVL
B17: the binding result in assay [4], in assay [5] and in assay [6] was “recognises” each time.

B18: TCRCD4-TPT#91 (TCR, V domains shown)
Valpha: EDQVTQSPEALRLQEGESSSLNCSYTVSGLRGLFWYRQDPGKGPEFLFTLYSAGEEKEKERLKATLTKKESFLHITAPKPEDSATYLCAVLGGSNYKLTFGKGTLLTVNP
Vbeta: NAGVTQTPKFQVLKTGQSMTLQCAQDMNHNSMYWYRQDPGMGLRLIYYSASEGTTDKGEVPNGYNVSRLNKREFSLRLESAAPSQTSVYFCAISRDSYEQYFGPGTRLTVT
With B18, the binding result in assay [2] is “recognises”.
